Reference: PMC10250827
*1 amine or outer side, *2 acyl side, *3 side chain or, on linkers, in order; H or OH if unused. Glutaryl = O=C(CCCC(=O)[*:2])[*:1]; Suc = O=C(CCC(=O)[*:2])[*:1]

How the values were obtained:
[1] = target: Heat shock protein 90 (Hsp90), protein immobilised on the FEB chip (UniProt P07900); test: field effect biosensing
[2] = target: Heat shock protein 90 (Hsp90), protein immobilised on the FEB chip (UniProt P07900); test: field effect biosensing; remark: listed apart in the source

Question: For “Cell division cycle 37 (Cdc37), analyte protein in FEB (from UniProt Q16543 1-378) (natural protein)”, which KD in the presence of CHP-028 (competitive binding) [1] is on record?
Answer: The KD in the presence of CHP-028 (competitive binding) was 2.78 µM.

Question: Which Kd [2] does the source give for Ac-KTGDEKKGGYGRKKRRQRRR-NH2 [CHP-026, linear peptide CH3-CO-KTGDEK-K-GG-…-NH2] here?
Answer: The Kd was 342 µM.

B1: CHP-027, pre-cyclic peptidomimetic CO-(CH2)3-CO2H KTGDEK-K-GG-…-NH2 (peptide)
peptide: Glutaryl-KTGDEKKGGYGRKKRRQRRR-NH2
SMILES: C[C@@H](O)[C@H](NC(=O)[C@H](CCCCN)NC(=O)CCCC(=O)O)C(=O)NCC(=O)N[C@@H](CC(=O)O)C(=O)N[C@@H](CCC(=O)O)C(=O)N[C@@H](CCCCN)C(=O)N[C@@H](CCCCN)C(=O)NCC(=O)NCC(=O)N[C@@H](Cc1ccc(O)cc1)C(=O)NCC(=O)N[C@@H](CCCNC(=N)N)C(=O)N[C@@H](CCCCN)C(=O)N[C@@H](CCCCN)C(=O)N[C@@H](CCCNC(=N)N)C(=O)N[C@@H](CCCNC(=N)N)C(=O)N[C@@H](CCC(N)=O)C(=O)N[C@@H](CCCNC(=N)N)C(=O)N[C@@H](CCCNC(=N)N)C(=O)N[C@@H](CCCNC(=N)N)C(N)=O
Question: How did the Kd [2] turn out when B1 was run?
Answer: The Kd was 30 µM.

B2: CHP-028, pre-cyclic peptidomimetic CO-(CH2)2-CO2H KTGDEK-K-GG-…-NH2 (peptide)
peptide: Suc-KTGDEKKGGYGRKKRRQRRR-NH2
SMILES: C[C@@H](O)[C@H](NC(=O)[C@H](CCCCN)NC(=O)CCC(=O)O)C(=O)NCC(=O)N[C@@H](CC(=O)O)C(=O)N[C@@H](CCC(=O)O)C(=O)N[C@@H](CCCCN)C(=O)N[C@@H](CCCCN)C(=O)NCC(=O)NCC(=O)N[C@@H](Cc1ccc(O)cc1)C(=O)NCC(=O)N[C@@H](CCCNC(=N)N)C(=O)N[C@@H](CCCCN)C(=O)N[C@@H](CCCCN)C(=O)N[C@@H](CCCNC(=N)N)C(=O)N[C@@H](CCCNC(=N)N)C(=O)N[C@@H](CCC(N)=O)C(=O)N[C@@H](CCCNC(=N)N)C(=O)N[C@@H](CCCNC(=N)N)C(=O)N[C@@H](CCCNC(=N)N)C(N)=O
Question: For B2, which Kd [2] is on record?
Answer: Its Kd is 16.4 µM.
